This note sets out measurements from publication PMC7830388.

The target in data set [1] is T1, CopRΔTRASH internal_change (Pyrococcus furiosus) (UniProt Q8U2U0).
T1 sequence: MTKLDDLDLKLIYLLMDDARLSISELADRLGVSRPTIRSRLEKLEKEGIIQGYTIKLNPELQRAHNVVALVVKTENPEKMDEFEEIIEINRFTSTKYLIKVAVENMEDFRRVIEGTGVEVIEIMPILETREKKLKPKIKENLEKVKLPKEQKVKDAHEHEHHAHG
Description: EMSA. The note with it: EMSA: 20 nM DNA, 40 mM HEPES pH 7.4, 80 mM (NH4)2SO4, 670 uM DTT, 20 ug/ml BSA, 6.7% glycerol, 50 ng HindIII-digested lambda DNA, 5 min 70 C; DNase I: 4.4 nM …. Background: Mobility shift assays separate free from complexed probe on a gel.

The target in data set [2] is T2, CopR (Pyrococcus furiosus) (UniProt Q8U2U0).
T2 sequence: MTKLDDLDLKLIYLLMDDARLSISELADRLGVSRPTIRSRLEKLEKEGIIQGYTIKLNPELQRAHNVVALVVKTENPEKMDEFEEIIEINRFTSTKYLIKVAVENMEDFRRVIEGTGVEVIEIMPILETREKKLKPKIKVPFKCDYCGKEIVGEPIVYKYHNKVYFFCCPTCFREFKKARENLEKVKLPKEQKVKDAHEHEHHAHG
The data set is described as follows: EMSA. The following applies: EMSA: 20 nM DNA, 40 mM HEPES pH 7.4, 80 mM (NH4)2SO4, 670 uM DTT, 20 ug/ml BSA, 6.7% glycerol, 50 ng HindIII-digested lambda DNA, 5 min 70 C; DNase I: 4.4 nM ….

The target in data set [3] is T3, CopRΔHIS (Pyrococcus furiosus) (UniProt Q8U2U0).
T3 sequence: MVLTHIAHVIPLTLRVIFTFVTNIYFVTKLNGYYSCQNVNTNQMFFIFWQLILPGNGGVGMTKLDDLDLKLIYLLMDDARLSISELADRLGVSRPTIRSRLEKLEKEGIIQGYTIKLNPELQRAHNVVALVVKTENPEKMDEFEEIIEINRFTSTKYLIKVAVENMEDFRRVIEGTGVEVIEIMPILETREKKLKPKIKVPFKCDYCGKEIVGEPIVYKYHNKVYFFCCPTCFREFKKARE
Description: EMSA. The note with it: EMSA: 20 nM DNA, 40 mM HEPES pH 7.4, 80 mM (NH4)2SO4, 670 uM DTT, 20 ug/ml BSA, 6.7% glycerol, 50 ng HindIII-digested lambda DNA, 5 min 70 C; DNase I: 4.4 nM ….

In data set [4] the target is T4, CopRΔHISΔTRASH (Pyrococcus furiosus) (UniProt Q8U2U0).
T4 sequence: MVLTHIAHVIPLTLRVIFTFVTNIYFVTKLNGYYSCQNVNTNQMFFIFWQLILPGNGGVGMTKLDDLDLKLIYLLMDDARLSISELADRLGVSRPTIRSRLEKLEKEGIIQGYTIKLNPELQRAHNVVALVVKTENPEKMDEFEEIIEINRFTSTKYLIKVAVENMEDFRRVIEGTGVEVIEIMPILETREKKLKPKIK
The data set is described as follows: EMSA. The following applies: EMSA: 20 nM DNA, 40 mM HEPES pH 7.4, 80 mM (NH4)2SO4, 670 uM DTT, 20 ug/ml BSA, 6.7% glycerol, 50 ng HindIII-digested lambda DNA, 5 min 70 C; DNase I: 4.4 nM ….

The target of data set [5] is CopRΔTRASH (PF0739 variant lacking the metal-sensing TRASH domain) (Pyrococcus furiosus). The data set is described as follows: negative-stain transmission electron microscopy with 2D class averaging; 220 ng/μl protein, 2% uranyl acetate with 0.005% DDM; more than 50,000 particles classified in RELION 3.0; in the absence and presence of a DNA template.
Data set [6] deals with CopR (PF0739), copper-sensing transcriptional regulator of Pyrococcus furiosus (Pyrococcus furiosus). The data set is described as follows: SEC; Superdex 200 10/300 GL in low salt buffer (40 mM HEPES pH 7.5, 80 mM ammonium sulfate, 1 mM EDTA, 10% glycerol); elution compared to standard calibration proteins. In general terms: SEC sorts molecules by how far they enter the pores of the column.

The target of data set [7] is T5, TBP;TFB (Pyrococcus furiosus?;Pyrococcus furiosus?) (UniProt P62000+P61998).
T5 sequence 1: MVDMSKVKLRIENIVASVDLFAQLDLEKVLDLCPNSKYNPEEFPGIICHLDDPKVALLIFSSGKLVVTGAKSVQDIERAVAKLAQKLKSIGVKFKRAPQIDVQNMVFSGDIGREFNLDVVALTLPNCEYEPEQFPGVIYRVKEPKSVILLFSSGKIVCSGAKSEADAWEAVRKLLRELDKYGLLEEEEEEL
T5 sequence 2: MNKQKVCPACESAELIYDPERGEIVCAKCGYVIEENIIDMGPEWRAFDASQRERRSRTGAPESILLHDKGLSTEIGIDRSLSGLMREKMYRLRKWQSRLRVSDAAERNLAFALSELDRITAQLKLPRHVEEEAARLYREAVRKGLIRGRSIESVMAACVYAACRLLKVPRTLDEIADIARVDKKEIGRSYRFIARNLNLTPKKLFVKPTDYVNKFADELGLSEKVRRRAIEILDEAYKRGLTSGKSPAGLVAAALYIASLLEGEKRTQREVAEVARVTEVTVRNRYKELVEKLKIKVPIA
Description: DNase I footprinting. The following applies: EMSA: 20 nM DNA, 40 mM HEPES pH 7.4, 80 mM (NH4)2SO4, 670 uM DTT, 20 ug/ml BSA, 6.7% glycerol, 50 ng HindIII-digested lambda DNA, 5 min 70 C; DNase I: 4.4 nM ….

Data set [8] deals with T2, CopR (Pyrococcus furiosus). The data set is described as follows: DNase I footprinting. The note with it: EMSA: 20 nM DNA, 40 mM HEPES pH 7.4, 80 mM (NH4)2SO4, 670 uM DTT, 20 ug/ml BSA, 6.7% glycerol, 50 ng HindIII-digested lambda DNA, 5 min 70 C; DNase I: 4.4 nM ….

For “GAGTGATCTTCACTTTCGTCACCAATATTTACTTTGTGACGAAACTTAATGGGTATTATTCATGCCAAAATGTAAACACTAACCAAATGTTTTTTATATTTTGGCAACTAATACTCCCAGGGAATGGGGGTGTTGGAATGACCAAGTTAGATG (double strand) [copR/copA intergenic promoter region (EMSA)]”, the binding result in data set [1], in data set [2], in data set [3] and in data set [4] was “binds” in each case.
Broadly, the stoichiometry N is a count of units in the complex or per binding partner. Turning to “CopRΔTRASH (PF0739 variant lacking the metal-sensing TRASH domain) (natural protein)”, the stoichiometry N in data set [5] amounted to 8.
Consider “CopR (PF0739), copper-sensing transcriptional regulator of Pyrococcus furiosus (natural protein)”, for which the stoichiometry N in data set [6] was 8.
Consider “GAGTGATCTTCACTTTCGTCACCAATATTTACTTTGTGACGAAACTTAATGGGTATTATTCATGCCAAAATGTAAACACTAACCAAATGTTTTTTATATTTTGGCAACTAATACTCCCAGGGAATGGGGGTGTTGGAATGACCAAGTTAGATG (double strand) [copR/copA promoter region (DNase I footprint)]”, for which the binding entry in data set [7] and in data set [8] was “binds” throughout.
